From publication PMC12280208 (Nature Communications, 2025)

Target: MVP3-5 (MVP residues 102-274), wild type (human, UniProt Q14764 102-274)
Assay: SEC

Sequence of MVP3-5 (MVP residues 102-274), wild type (Q14764 102-274): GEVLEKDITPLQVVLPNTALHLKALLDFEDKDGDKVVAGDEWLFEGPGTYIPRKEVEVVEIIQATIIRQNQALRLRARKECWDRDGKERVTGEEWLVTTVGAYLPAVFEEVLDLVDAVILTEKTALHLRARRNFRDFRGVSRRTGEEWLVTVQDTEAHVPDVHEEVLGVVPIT

B1: PARP4 MINT domain (residues 1562-1724), wild type (domain or fragment)
chain: VCIQHWQDAVPWTELLSLQTEDGFWKLTPELGLILNLNTNGLHSFLKQKGIQSLGVKGRECLLDLIATMLVLQFIRTRLEKEGIVFKSLMKMDDASISRNIPWAFEAIKQASEWVRRTEGQYPSICPRLELGNDWDSATKQLLGLQPISTVSPLHRVLHYSQG
- binding result: binds
